Reference: doi:10.1101/488536, “The Ca^2+ sensor protein CMI1 fine tunes root development, auxin distribution and responses” (bioRxiv, 2018)

Assays:
GST-ICR1 = target: T1, GST-ICR1 (Arabidopsis, UniProt Q8LE98 1-344); assay: pull-down; GST-ICR1 (1.2 μg) or GST (0.4 μg) on Glutathione sepharose, 0.5 μg His6-CMI1; 20 mM Tris-HCl pH 7.5, 5 mM CaCl2, 0.1 mg/mL BSA, 200 mM NaCl, 1% Triton X-100, RT; wash with 1 M NaCl; details: both partners purified
T1 construct: ICR1, Arabidopsis; source: E. coli Rosetta (DE3), purified (Glutathione sepharose)
T1 sequence (looked up): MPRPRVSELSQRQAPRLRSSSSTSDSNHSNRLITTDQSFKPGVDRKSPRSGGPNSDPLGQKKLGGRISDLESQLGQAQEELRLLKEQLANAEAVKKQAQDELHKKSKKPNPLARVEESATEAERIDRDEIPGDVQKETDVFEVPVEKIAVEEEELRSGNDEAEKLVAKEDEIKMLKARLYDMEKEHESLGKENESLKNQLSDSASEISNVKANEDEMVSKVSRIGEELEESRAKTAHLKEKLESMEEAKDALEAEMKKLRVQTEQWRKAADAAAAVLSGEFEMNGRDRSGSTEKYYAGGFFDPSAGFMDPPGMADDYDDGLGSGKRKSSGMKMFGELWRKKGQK

His6-ICR1 = target: T2, His6-ICR1 (Arabidopsis, UniProt Q8LE98 1-344); assay: co-IP; His6-CMI1 and His6-ICR1, 1 μg each, in 300 μL Ca^2+ reaction buffer (20 mM Tris-HCl pH 7.5, 5 mM CaCl2, 0.1 mg/mL BSA, 200 mM NaCl, 1% Triton X-100), RT; anti-CMI1 antibodies and Protein A beads; blot with anti poly-His; details: both partners purified
T2 construct: ICR1, Arabidopsis; also called His-ICR1; source: E. coli Rosetta (DE3), purified (Ni-NTA)
T2 sequence (looked up): T1 sequence (looked up)

B1: His6-CMI1 (natural protein, Arabidopsis, UniProt O81831 1-130, looked up)
chain: MASPKSPTRPTQQNPQPNFHDFLPTMAGNLGGEGLIGELCNGFELLMDREKGVITFESLRRNAAAVLGLGDLTDEDVRCMIKEGDFDCDGALNQMEFCVLMFRLSPDLMEASRCLVTEVIEEEFGFTRRH
notes: CMI1, Arabidopsis, At4g27280; also called His-CMI1; source: E. coli Rosetta (DE3), purified (Ni-NTA)
binding result (GST-ICR1): binds
binding result (His6-ICR1): binds
